Assay results as given in US20200165351A1 (University of California, published 2020).
One block for each binder: values may come before it.

How the values were obtained:
[1] = target: T1, bacterially produced N-cadherin ECD1-3 (UniProt P19022 160-497, limits assumed); assay: ELISA, saturation binding on immobilized antigen, half-maximal binding
T1 construct: domain: ECD1-3; Antigen against which hybridoma 1H7 was selected; also called ECD1-3 (bacterially produced)
T1 sequence (looked up): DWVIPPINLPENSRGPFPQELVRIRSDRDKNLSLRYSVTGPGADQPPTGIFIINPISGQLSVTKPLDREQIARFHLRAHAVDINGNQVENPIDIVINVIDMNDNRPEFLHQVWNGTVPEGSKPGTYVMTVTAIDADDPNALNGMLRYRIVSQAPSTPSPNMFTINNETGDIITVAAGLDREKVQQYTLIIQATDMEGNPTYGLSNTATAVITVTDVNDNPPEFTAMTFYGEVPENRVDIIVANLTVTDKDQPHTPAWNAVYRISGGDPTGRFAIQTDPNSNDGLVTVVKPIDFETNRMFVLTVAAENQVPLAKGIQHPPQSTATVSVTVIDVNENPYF
Description: FIG. 11 depicts saturation binding of full length IgGs to recombinant antigen in ELISA. Bacterially produced antigens ECD4 and ECD1-3 were immobilized. Bound antibodies were detected with goat anti-human Fcg-AP or goat anti-mouse Fcg-AP respectively.
Saturation binding of the humanized full-length antibodies in comparison to the parental murine antibodies was tested in ELISA.

[2] = target: T2, recombinant human N-cadherin ECD1-3-Fc (human; murine, UniProt P19022 160-497); assay: ELISA, saturation binding on immobilized antigen
T2 construct: range 160-497; Cloned into pSECTag2A(AgeI); produced in 293-F cells, Protein A purified; also called Ncad-ECD1-3-Fc; not shown: murine gamma 2a Fc region
T2 sequence (looked up): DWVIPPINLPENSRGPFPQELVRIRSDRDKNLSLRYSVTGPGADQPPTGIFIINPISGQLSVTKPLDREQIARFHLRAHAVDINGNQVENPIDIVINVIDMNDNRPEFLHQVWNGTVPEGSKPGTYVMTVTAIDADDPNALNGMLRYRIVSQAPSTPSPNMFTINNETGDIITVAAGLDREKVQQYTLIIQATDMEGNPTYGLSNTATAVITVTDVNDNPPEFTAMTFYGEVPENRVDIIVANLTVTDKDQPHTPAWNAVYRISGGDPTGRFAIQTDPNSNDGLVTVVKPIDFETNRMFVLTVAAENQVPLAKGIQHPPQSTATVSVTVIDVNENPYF
Description: Saturation binding of the humanized scFv fragments was performed on immobilized recombinant human Ncad-ECD1-3-Fc in ELISA (FIG. 8) confirming successful humanization and retained antigen specificity.

[3] = target: bacterially produced human N-cadherin ECD4 with ECD3 overhang (human) (UniProt P19022); assay: ELISA, saturation binding on immobilized antigen, half-maximal binding

- Kd [1]: 0.4 nM
B1: hu1H7 IgG (antibody, V domains shown)
VH: QVQLVQSGAEVKKPGASVKVSCKASGFTFTDYLIQWVRQAPGQGLEWIGWIYPGSGSIKYNEKFQGRVTMTADTSINTAYMELSRLRSDDTAVYFCARRGDWGGFFDYWGQGTLVTVSS
VL: EIVLTQSPATLSLSPGERATLSCTASSSVSSSYLHWYQQKPGLAPRLWIFSTSNLASGIPDRFSGSGSGTDFTLTISRLEPEDFAVYYCHQYHRSLTFGGGTKVEIK
notes: also called h1H7; humanized full-length antibody hu1H7

- binding result [2]: binds
B2: humanized 2A9 scFv (scFv)
scFv: QVQLVQSGAEVKKPGASVKLSCKASGYTFTSYWMQWVRQAPGQGLEWIGAIYPGDGETTYTQKFKGRVTMTADTSISTAYMELSRLRSDDTAVYYCAKGDGYWAMDYWGQGTLVTVSSGGGGSGGGGSGGGGSDVVMTQSPLSLPVTLGQPASISCRSSQSLVHSNGNTYLHWYQQRPGQSPRLLIYKVSNRFSGVPDRFSGSGSGTDFTLKISRVEAEDVGVYYCSQSTHVPLTFGAGTKLELK
notes: VH-(G4S)3-VL scFv secreted with the Ig kappa leader; also called hu2A9 scFv; scFv hu2A9; not shown: C-terminal tag from vector pSECTag2A (His-tag; detected through c-Myc)

- Kd [3]: 0.5 nM
B3: hu2A9 IgG (antibody, V domains shown)
VH: QVQLVQSGAEVKKPGASVKLSCKASGYTFTSYWMQWVRQAPGQGLEWIGAIYPGDGETTYTQKFKGRVTMTADTSISTAYMELSRLRSDDTAVYYCAKGDGYWAMDYWGQGTLVTVSS
VL: DVVMTQSPLSLPVTLGQPASISCRSSQSLVHSNGNTYLHWYQQRPGQSPRLLIYKVSNRFSGVPDRFSGSGSGTDFTLKISRVEAEDVGVYYCSQSTHVPLTFGAGTKLELK
